In the supplement of paper PMC7125110:
± gives the standard error. Variants at the floor of the assay were thinned out.

B1: glmS ribozyme (parent)
chain: AUAAAAGCGCCAGAACUACAGAAAUGUAGUUGACGAGGAGGAGGUUUAUCGAAUUUUCGGCGGAUGCCUCCAAA

Legend:
Conditions in all cases: with glucosamine-6-phosphate
glucosamine-6-phosphate [1] = variants of: B1; assay: self-cleavage kobs at 40 uM GlcN6P; higher = faster cleavage; RNA array
Procedure, shortened: (§1)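 Over ~14 h at 37 °C, tiles were imaged as glucosamine-6-phosphate (40 μM to 10 mM) in HEPES/KCl/Mg(OAc)2 buffer flowed across sequenced MiSeq chips. The chips carried barcoded ribozyme variants transcribed in situ by E. coli RNA polymerase and tracked with a hybridised Cy3 probe. After normalisation to baseline and to non-cleaving reference variants, one- or two-exponential decay fits of per-tile medians gave kobs. kcat and KM followed from weighted Michaelis–Menten fits across concentrations.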

glucosamine-6-phosphate [2] = variants of: B1; assay: self-cleavage kobs at 160 uM GlcN6P; higher = faster cleavage; RNA array
Procedure, shortened: as §1

glucosamine-6-phosphate [3] = variants of: B1; assay: self-cleavage kobs at 640 uM GlcN6P; higher = faster cleavage; RNA array
Procedure, shortened: as §1

glucosamine-6-phosphate [4] = variants of: B1; assay: self-cleavage kobs at 2500 uM GlcN6P; higher = faster cleavage; RNA array
Procedure, shortened: as §1

glucosamine-6-phosphate [5] = variants of: B1; assay: self-cleavage kobs at 10000 uM GlcN6P; higher = faster cleavage; RNA array
Procedure, shortened: as §1

Variant | self-cleavage kobs at 40 uM GlcN6P (glucosamine-6-phosphate [1]) [s⁻¹] | self-cleavage kobs at 160 uM GlcN6P (glucosamine-6-phosphate [2]) [s⁻¹] | self-cleavage kobs at 640 uM GlcN6P (glucosamine-6-phosphate [3]) [s⁻¹] | self-cleavage kobs at 2500 uM GlcN6P (glucosamine-6-phosphate [4]) [s⁻¹] | self-cleavage kobs at 10000 uM GlcN6P (glucosamine-6-phosphate [5]) [s⁻¹]
G7C A39G | < 1e-05 | < 1e-05 | < 1e-05 | < 1e-05 | < 1e-05
G7C A39U | < 1e-05 |  | < 1e-05 |  | < 1e-05
G7A G13U U55C | < 1e-05 |  |  |  | < 1e-05
G7A C11G A12U A42C G44A G51C A53U C71U | < 1e-05 |  |  |  | < 1e-05
G7A G9U U31G G41A U65C | < 1e-05 | < 1e-05 | < 1e-05 |  | 
G7U U57G C61A C68U C70U | 5.84e-05 ± 2.5e-05 |  |  |  | 
A6U G43A G59A G60U | < 1e-05 |  |  |  | 
G7U G40A | < 1e-05 |  |  |  | 
C8A A53C | < 1e-05 | < 1e-05 | < 1e-05 | < 1e-05 | < 1e-05
C8A A53U | < 1e-05 | < 1e-05 | < 1e-05 | < 1e-05 | < 1e-05
C8A C71A | < 1e-05 | < 1e-05 | < 1e-05 | < 1e-05 | < 1e-05
G7A A14G U49C | < 1e-05 |  |  |  | < 1e-05
G7U A48G A64U | < 1e-05 |  |  |  | < 1e-05
G7A G35A A53C | < 1e-05 | < 1e-05 | < 1e-05 | < 1e-05 | 
C8A U45A | < 1e-05 | < 1e-05 | < 1e-05 | < 1e-05 | < 1e-05
C8A U45C | < 1e-05 |  | < 1e-05 | < 1e-05 | 
C8G A14G A33G | < 1e-05 |  |  | < 1e-05 | < 1e-05
G7C C11A | < 1e-05 | < 1e-05 | < 1e-05 |  | < 1e-05
G7C C11U | < 1e-05 | < 1e-05 | < 1e-05 | < 1e-05 | < 1e-05
A6U G32C G41U | < 1e-05 |  |  |  | 
C8G A14C | < 1e-05 | < 1e-05 | < 1e-05 | < 1e-05 | < 1e-05
A6U G62C | < 1e-05 |  | < 1e-05 | < 1e-05 | 
C8A G40A G63A | < 1e-05 |  |  |  | < 1e-05
C8A A33U C34A U56A | < 1e-05 |  |  |  | 
G7A G21U A33G C67U U69G | 8.76e-05 ± 2.2e-05 |  |  |  | 0.000115 ± 1.8e-05

Variant | self-cleavage kobs at 40 uM GlcN6P (glucosamine-6-phosphate [1]) [s⁻¹] | self-cleavage kobs at 160 uM GlcN6P (glucosamine-6-phosphate [2]) [s⁻¹] | self-cleavage kobs at 640 uM GlcN6P (glucosamine-6-phosphate [3]) [s⁻¹] | self-cleavage kobs at 2500 uM GlcN6P (glucosamine-6-phosphate [4]) [s⁻¹] | self-cleavage kobs at 10000 uM GlcN6P (glucosamine-6-phosphate [5]) [s⁻¹]
C8A C34G A52U C67U | < 1e-05 |  |  |  | < 1e-05
G7U U69A | 3.92e-05 ± 1.7e-05 | 0.000853 ± 0.00032 |  |  | 
G7U U69G | 0.000114 ± 2.1e-05 |  | 0.000299 ± 7e-05 | 6.87e-05 ± 1.8e-05 | 0.000226 ± 8.9e-05
G7U A53U U57A | < 1e-05 |  |  |  | 
G7C C10U U30A U46A | < 1e-05 |  |  |  | 
G7A U31C A48U | < 1e-05 |  |  |  | 
C8A C34U G35U G43A U45G U54C | < 1e-05 |  |  |  | < 1e-05
G7U G32A | < 1e-05 | < 1e-05 | < 1e-05 | < 1e-05 | < 1e-05
G7U G32C | < 1e-05 |  | < 1e-05 | < 1e-05 | < 1e-05
G7A C8A A42C U69A | < 1e-05 |  |  |  | < 1e-05
G7C C8U A39U A53U | < 1e-05 |  |  |  | < 1e-05
G7U G35C U57A | < 1e-05 |  |  | < 1e-05 | 
G7A A42G C70U | < 1e-05 |  |  | < 1e-05 | 
A6U G40U U56A | < 1e-05 |  | < 1e-05 |  | 
G7A A12C G51C A53G G66A | < 1e-05 |  |  |  | 
G7A G44C A48U C68U | < 1e-05 |  |  |  | < 1e-05
C8G A39U A53C C58U | < 1e-05 |  |  |  | 
C8G A48C | < 1e-05 | < 1e-05 |  | < 1e-05 | 
G7C U45G | < 1e-05 | < 1e-05 | < 1e-05 | < 1e-05 | < 1e-05
C8G A39U C58U | < 1e-05 | < 1e-05 | < 1e-05 |  | < 1e-05
G7A A12G U30C U49A C71U | < 1e-05 |  |  |  | 
G7U U45G C61A | < 1e-05 |  |  |  | < 1e-05
G7A C50G C68A | 9.01e-05 ± 1.9e-05 |  |  |  | 0.000134 ± 2.4e-05
G7A A33U A52U C70U | < 1e-05 |  |  | < 1e-05 | 
C8G | < 1e-05 | < 1e-05 | < 1e-05 | < 1e-05 | < 1e-05

Variant | self-cleavage kobs at 40 uM GlcN6P (glucosamine-6-phosphate [1]) [s⁻¹] | self-cleavage kobs at 160 uM GlcN6P (glucosamine-6-phosphate [2]) [s⁻¹] | self-cleavage kobs at 640 uM GlcN6P (glucosamine-6-phosphate [3]) [s⁻¹] | self-cleavage kobs at 2500 uM GlcN6P (glucosamine-6-phosphate [4]) [s⁻¹] | self-cleavage kobs at 10000 uM GlcN6P (glucosamine-6-phosphate [5]) [s⁻¹]
G7A G41C | < 1e-05 | < 1e-05 | < 1e-05 | < 1e-05 | 
A6U G13U U47A | < 1e-05 |  |  |  | 
G7A A36C U54G | < 1e-05 |  |  |  | < 1e-05
G7C C10A A52C | < 1e-05 |  |  |  | < 1e-05
C8A C16U U45C G62U C70A | < 1e-05 |  |  |  | 
G7A G62C | < 1e-05 | < 1e-05 | < 1e-05 | < 1e-05 | 
A6U G26A A48U A52G | < 1e-05 | < 1e-05 |  |  | 
G7U A52G | < 1e-05 | < 1e-05 |  |  | 
G7C C11U A42G A64U | < 1e-05 |  |  |  | < 1e-05
A6U G13A A14U | < 1e-05 | < 1e-05 |  |  | < 1e-05
G7A G13C G38A | < 1e-05 |  |  | < 1e-05 | 
G7C G60U | < 1e-05 | < 1e-05 |  | < 1e-05 | < 1e-05
G7C G32A | < 1e-05 | < 1e-05 |  |  | < 1e-05
G7A A48C G59A A64G | < 1e-05 |  |  |  | < 1e-05
C8A G43C C67U | < 1e-05 |  | < 1e-05 | < 1e-05 | 
C8A G44U | < 1e-05 | < 1e-05 | < 1e-05 |  | < 1e-05
G7U A36U U54A G62A | < 1e-05 |  |  |  | 
G7C C16U U31A G41U | < 1e-05 |  |  | < 1e-05 | < 1e-05
G7C A12G | < 1e-05 |  |  | < 1e-05 | < 1e-05
G7C C16G A52G | < 1e-05 |  | < 1e-05 |  | < 1e-05
G7C A14G G38C U54G | < 1e-05 |  |  |  | 
G7U G51C | < 1e-05 |  | < 1e-05 | < 1e-05 | 
G7U G13A A15U U31G U49G C67A | < 1e-05 |  |  |  | 
G7U C11A C61G | < 1e-05 |  |  |  | 
G7U A64C | < 1e-05 |  | < 1e-05 |  | < 1e-05

Variant | self-cleavage kobs at 40 uM GlcN6P (glucosamine-6-phosphate [1]) [s⁻¹] | self-cleavage kobs at 160 uM GlcN6P (glucosamine-6-phosphate [2]) [s⁻¹] | self-cleavage kobs at 640 uM GlcN6P (glucosamine-6-phosphate [3]) [s⁻¹] | self-cleavage kobs at 2500 uM GlcN6P (glucosamine-6-phosphate [4]) [s⁻¹] | self-cleavage kobs at 10000 uM GlcN6P (glucosamine-6-phosphate [5]) [s⁻¹]
C8A G37C U69G C71G | 0.000455 ± 0.00017 |  |  |  | 
C8A A15U U31A G41U C50U G51U G62A | < 1e-05 |  |  | < 1e-05 | < 1e-05
G7U C11U A33U G40C | < 1e-05 |  |  | < 1e-05 | < 1e-05
G7U U30G C61G G62U | < 1e-05 |  |  |  | 
G7C A15C | < 1e-05 | < 1e-05 | < 1e-05 | < 1e-05 | < 1e-05
A6U G9A U65G C70A | < 1e-05 |  |  |  | 
C8A C10A | < 1e-05 | < 1e-05 | < 1e-05 |  | 
G7U C8G G32C U56G C61A | < 1e-05 |  |  | < 1e-05 | 
C8A G32A G37A | < 1e-05 |  |  |  | 
A6U G9U A15C U30A U49C | < 1e-05 |  |  |  | 
G7A U47A | < 1e-05 | < 1e-05 |  |  | 
G7U A12C | < 1e-05 | < 1e-05 | < 1e-05 | < 1e-05 | < 1e-05
A6U G13C U69C | < 1e-05 |  |  |  | < 1e-05
C8A A15U G38A G41C A53G | < 1e-05 |  |  |  | 
G7A A33C | < 1e-05 | < 1e-05 | < 1e-05 |  | < 1e-05
G7C C11A C50U U54C C58A C70A | 0.000371 ± 0.00013 |  |  |  | 
C8A A33U G40A A64G C68A | < 1e-05 |  | < 1e-05 | < 1e-05 | < 1e-05
C8G A15U | < 1e-05 | < 1e-05 | < 1e-05 | < 1e-05 | < 1e-05
G7U G41U | < 1e-05 | < 1e-05 | < 1e-05 | < 1e-05 | < 1e-05
C8A C16G | < 1e-05 | < 1e-05 | < 1e-05 | < 1e-05 | < 1e-05
G7A G29A U55C G60U | < 1e-05 |  |  | < 1e-05 | 
C8A U30A | < 1e-05 | < 1e-05 |  | < 1e-05 | < 1e-05
G7U G29A U30C C34U U45A | < 1e-05 |  |  |  | 
G7C G41U C50G | < 1e-05 |  |  |  | 
